In test [1] the target is T1, Human Telomerase Reverse Transcriptase (hTERT) peptide on HLA-A*03:01 (human).
T1 peptide: SVLNYERARR
Description: multimer staining.

The target in test [2] is T2, Survivin (BIRC5), modified form of the peptide peptide on HLA-A*02:01 (human).
T2 peptide: LMLGEFLKL
Description: multimer staining.

The target of test [3] is T3, Survivin (BIRC5) peptide on HLA-A*02:01 (human).
T3 peptide: LTLGEFLKL
Put plainly: killing. As for the experimental part:
(A) Survivin-specific transgenic T cells were co-cultured with Survivin⁺ primary AML blasts expressing (target blasts) or not (control blasts) the HLA-A0201⁺ allele in 1:1 effector to target ratio. After 24 hours, elimination index was calculated as [1-(number of alive blasts cultured with edited T cells/number of alive blasts alone)]. (B) Survivin-specific transgenic T cells were co-cultured with Survivin⁺ primary AML blasts expressing (target blasts, upper) or not (control blasts, lower) the HLA-A0201⁺ allele in 1:1 effector to target ratio. Killing is represented as area covered (μm²) by cells undergoing apoptosis (caspase 3/7 activation) overtime. […] Data are presented as means±SD. ****P<0.0001, by Student t-test (A) or two-way ANOVA (B).
For killing assay cells were plated and kept at 37° C. and 5% CO2 after the addition of anti-CD28 monoclonal antibodies (1 μg/ml; BD biosciences) for 72 hours in case of co-culture with cell lines, and for 24 hours for co-cultures with primary AML blasts. […] Viable target cells were counted using counting beads (Flow-count fluorospheres, Beckman Coulter), according to manufacturer's instructions. Elimination index was calculated according to the formula: [1-(number of alive target cells in culture with effector T cells/number of alive target cells in control culture)]. […] Data were analyzed by FlowJo software version 10 (BD).

B1: hTERT #3 (TCR, V domains shown)
Valpha: KDQVFQPSTVASSEGAVVEIFCNHSVSNAYNFFWYLHFPGCAPRLLVKGSKPSQQGRYNMTYERFSSSLLILQVREADAAVYYCAVETGGGATNKLIFGTGTLLAVQP
Vbeta: NAGVTQTPKFQVLKTGQSMTLQCAQDMNHNSMYWYRQDPGMGLRLIYYSASEGTTDKGEVPNGYNVSRLNKREFSLRLESAAPSQTSVYFCASSEFWLTQETQYFGPGTRLLVL
Take B1: the binding result in test [1] was “recognises”.

B2: Survivin TCR (TCR, V domains shown)
Valpha: SQKIEQNSEALNIQEGKTATLTCNYTNYSPAYLQWYRQDPGRGPVFLLLIRENEKEKRKERLKVTFDTTLKQSLFHITASQPADSATYLCALDRMDSSYKLIFGSGTRLLVRP
Vbeta: NAGVTQTPKFQVLKTGQSMTLQCAQDMNHEYMSWYRQDPGMGLRLIHYSVGAGITDQGEVPNGYNVSRSTTEDFPLRLLSAAPSQTSVYFCASSYDQDGEAFFGQGTRLTVV
Regarding B2, the binding result in test [2] and in test [3] was “recognises” each time.

B3: hTERT #4 (TCR, V domains shown)
Valpha: GIQVEQSPPDLILQEGANSTLRCNFSDSVNNLQWFHQNPWGQLINLFYIPSGTKQNGRLSATTVATERYSLLYISSSQTTDSGVYFCAVSHGRGGATNKLIFGTGTLLAVQP
Vbeta: NAGVTQTPKFQVLKTGQSMTLQCAQDMNHNSMYWYRQDPGMGLRLIYYSASEGTTDKGEVPNGYNVSRLNKREFSLRLESAAPSQTSVYFCASDRVLGYEQYFGPGTRLTVT
In the case of B3, in test [1], the binding result is recorded as “recognises”.

B4: hTERT #2 (TCR, V domains shown)
Valpha: GQNIDQPTEMTATEGAIVQINCTYQTSGFNGLFWYQQHAGEAPTFLSYNVLDGLEEKGRFSSFLSRSKGYSYLLLKELQMKDSASYLCAVSRPNSGYSTLTFGKGTMLLVSP
Vbeta: AAGVIQSPRHLIKEKRETATLKCYPIPRHDTVYWYQQGPGQDPQFLISFYEKMQSDKGSIPDRFSAQQFSDYHSELNMSSLELGDSALYFCASSVRTPSGQETQYFGPGTRLLVL
On to B4, for which, in test [1], the binding result is listed as “recognises”.

B5: hTERT #1 (TCR, V domains shown)
Valpha: GENVEQHPSTLSVQEGDSAVIKCTYSDSASNYFPWYKQELGKRPQLIIDIRSNVGEKKDQRIAVTLNKTAKHFSLHITETQPEDSAVYFCADWVDMRFGAGTRLTVKP
Vbeta: GAVVSQHPSWVICKSGTSVKIECRSLDFQATTMFWYRQFPKQSLMLMATSNEGSKATYEQGVEKDKFLINHASLTLSTLTVTSAHPEDSSFYICSAPLDRGSNQPQHFGDGTRLSIL
Turning to B5, in test [1], the binding result was “recognises”.

Values taken from patent US20260232802A1 (published 2026).
